Data from US20250034256A1 (EUCURE BEIJING BIOPHARMA, published 2025).

Assays:
[1] = target: mouse PD-1 (mPD-1) on transfected CHO cells (mouse) (UniProt Q02242); assay: flow cytometry on CHO cells transfected with mPD-1 (CHO-mPD-1); anti-mIgG Fc-FITC against SSC-H
[2] = target: monkey (rhesus macaque) PD-1 (rmPD-1) on transfected CHO cells (rhesus macaque); assay: flow cytometry on CHO cells transfected with rmPD-1 (CHO-rmPD-1); anti-mIgG Fc-FITC against SSC-H
[3] = target: chimeric (mouse and human) PD-1 (chiPD-1) on transfected CHO cells (chimeric (mouse and human)); assay: flow cytometry on CHO cells transfected with chiPD-1 (CHO-chiPD-1); anti-mIgG Fc-FITC against SSC-H
Chain of chimeric (mouse and human) PD-1 (chiPD-1) on transfected CHO cells (chimeric (mouse and human)) (chain, as listed by the source mutant limits assumed): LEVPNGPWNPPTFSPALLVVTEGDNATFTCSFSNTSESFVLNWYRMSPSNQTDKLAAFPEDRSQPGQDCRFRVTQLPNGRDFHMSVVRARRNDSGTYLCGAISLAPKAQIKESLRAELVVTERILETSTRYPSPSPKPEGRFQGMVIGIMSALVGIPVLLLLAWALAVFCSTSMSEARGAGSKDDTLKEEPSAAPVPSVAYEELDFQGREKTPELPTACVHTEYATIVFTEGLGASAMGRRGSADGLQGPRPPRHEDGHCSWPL

Chain of mouse PD-1 (mPD-1) on transfected CHO cells (mouse) (Q02242 25-288 limits assumed): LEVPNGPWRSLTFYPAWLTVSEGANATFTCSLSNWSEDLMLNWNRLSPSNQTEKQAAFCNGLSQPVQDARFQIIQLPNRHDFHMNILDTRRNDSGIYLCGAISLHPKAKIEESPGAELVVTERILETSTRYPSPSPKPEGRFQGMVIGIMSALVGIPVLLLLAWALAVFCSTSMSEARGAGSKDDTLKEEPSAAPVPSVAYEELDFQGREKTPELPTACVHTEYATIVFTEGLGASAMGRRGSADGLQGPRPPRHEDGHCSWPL
Chain of monkey (rhesus macaque) PD-1 (rmPD-1) on transfected CHO cells (rhesus macaque) (Q15116 other isoform, or with tags, fused parts or gaps limits assumed): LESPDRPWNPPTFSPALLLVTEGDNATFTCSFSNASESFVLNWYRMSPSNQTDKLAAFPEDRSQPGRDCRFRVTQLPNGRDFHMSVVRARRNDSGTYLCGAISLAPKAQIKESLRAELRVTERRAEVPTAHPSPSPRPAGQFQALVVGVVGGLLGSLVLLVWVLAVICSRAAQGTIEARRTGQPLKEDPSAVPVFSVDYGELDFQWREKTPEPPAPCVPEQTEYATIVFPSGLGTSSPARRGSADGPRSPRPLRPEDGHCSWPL

% cells positive for Anti-mouse-IgGFc-FITC [1]: 0.346%
% cells positive for Anti-mouse-IgGFc-FITC [2]: 0.812%
% cells positive for Anti-mouse-IgGFc-FITC [3]: 2.79%
Substance: NC
